T1: MARCO (Mus musculus, UniProt Q60754)
T1 construct: secretion signal peptide (N); host or cells: Expi293 cells
T1 sequence (Q60754 with tags, fused parts or gaps): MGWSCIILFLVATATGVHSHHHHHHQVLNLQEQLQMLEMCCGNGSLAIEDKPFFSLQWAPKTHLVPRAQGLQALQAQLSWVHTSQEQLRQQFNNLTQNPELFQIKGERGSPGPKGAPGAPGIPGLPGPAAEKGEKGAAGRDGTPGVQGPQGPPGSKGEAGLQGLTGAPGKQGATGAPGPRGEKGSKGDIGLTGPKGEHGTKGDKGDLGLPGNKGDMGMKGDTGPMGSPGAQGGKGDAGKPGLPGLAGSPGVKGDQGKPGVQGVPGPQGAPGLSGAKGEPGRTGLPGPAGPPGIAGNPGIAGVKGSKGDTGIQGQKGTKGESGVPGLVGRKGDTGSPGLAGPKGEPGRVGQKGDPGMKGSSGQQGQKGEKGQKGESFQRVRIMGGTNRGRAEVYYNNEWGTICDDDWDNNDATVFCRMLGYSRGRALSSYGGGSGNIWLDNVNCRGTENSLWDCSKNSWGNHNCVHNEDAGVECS

B1: SRCR: recombinant mouse MARCO protein scavenger receptor cysteine-rich (SRCR) domain, SEQ ID NO: 2 (protein)
chain: MGWSCIILFLVATATGVHSHHHHHHQRVRIMGGTNRGRAEVYYNNEWGTICDDDWDNNDATVFCRMLGYSRGRALSSYGGGSGNIWLDNVNCRGTENSLWDCSKNSWGNHNCVHNEDAGVECS
modifications: MARCO SRCR

Experiments:
liver CD11b+ cells = experiment: Doxorubicin uptake by liver CD11b+ cells in treated mice (flow cytometry); assay type: in vivo; conditions: flow cytometry of digested liver cells
macrophages = experiment: Nanoparticle uptake (phagocytosis) by macrophages after MARCO knockdown or blockade; assay type: cell-based, mouse; conditions: with or without incubation with recombinant MARCO protein
Method: The effect of MARCO expression on nanoparticle uptake by macrophages in vitro was tested. […] On day 5 following macrophage collection and culture, the siRNAs were mixed with the DharmaFECT 4 transfection reagent (Horizon, T-2004-02) at a final concentration of 100 nM, after which the cells were incubated with the siRNA for 48 hours. The siRNAs used in this study were as follows: Control siRNA (Cell Signaling Technology, 6568S) and Marco siRNA (Millipore Sigma, SASI_Mm01_00200135, SASI_Mm02_00319301).
Scale bar=50 μm. White arrows indicate cells that have taken up nanoparticles. […] Unpaired t-test.
For the nanoparticle phagocytosis assay, cells were plated in Costar 24-well Clear Flat Bottom Ultra-Low Attachment Multiple Well Plates (Corning, 3473) at a density of 10^5 cells/well. Nanoparticles or drug were added to the wells at the following concentrations: nanoparticles, 10^2-10^4/cell; Abraxane, 1 μg/mL; doxorubicin (Doxil), 20 μg/mL. Plates were then transferred to a cell culture incubator, and 2 hours later the cells were collected and washed followed by fixation with 4% paraformaldehyde. The cells were stained with fluorescence-labeled antibodies and analyzed by flow cytometry. The mean fluorescence intensity or the percentage of fluorescence-positive cells was used to compare the uptake of nanoparticles or drug.

[1] = parameters: species or system mice; conditions: mouse, in vivo, iv
Method: Anti-MARCO, monoclonal MARCO antibody, clone ED31, 2.5 mg/kg; rMARCO, recombinant MARCO protein SRCR domain, 0.3 mg/kg; NP, 100 nm nanoparticles, 10^11 particles injected through tail vain. n=3 mice for each treatment group at each time point. One way ANOVA with correction for multiple comparison was used to compare the difference between NP and other treatment groups. Error bars are means±SD.
Blockade of MARCO-nanoparticle interaction decreased nanoparticle uptake by liver in mice. Two strategies for blocking the MARCO-nanoparticle interaction were tested: with antibody to directly block the MARCO receptors on the cell or with recombinant MARCO protein to saturate the MARCO binding capacity of the particles. Young female C57BL6 background mice (aged 6 weeks) were intravenously injected with fluorescence-labelled 100 nm PEGylated polystyrene nanoparticles (NP, 10^11 particles per 20 g of body weight) with or without recombinant MARCO protein (SRCR domain, 0.3 mg/kg). Liver IVIS imaging was done 4 h after the injection. […] Unpaired t-test.

E0771 tumor cells [2] = experiment: E0771 breast cancer mouse model, ABRAXANE plus MARCO blockade; assay type: in vivo, mice
Method: For this study, one million E0771 tumor cells were implanted in young female C57BL6 mice (aged 6 weeks old). Tumor growth was measured every 3 days with calipers. Tumor volume was calculated as: Volume=0.5×Length×Width^2. When tumor volume reached around 60-80 mm^3 the treatment was started. The mice were treated with paclitaxel-protein particles (ABRAXANE®, 20 mg/kg) or ABRAXANE® plus MARCO blockade agents (anti-MARCO antibody, 2.5 mg/kg; ECD (extracellular domain), MARCO protein extracellular domain, 1.5 mg/kg; SRCR, or MARCO protein scavenger receptor cysteine-rich (SRCR) domain, 0.3 mg/kg). IgG plus 0.9% sodium chloride was used as a control.
One-way analysis of variance with post hoc testing was used to compare tumor volumes at day 18 after treatment. Error bars are means±S.E.M. We used the same experimental setup with the breast E0771 tumor model and treatment doses as the young animals (ABRAXANE®, 20 mg/kg, and/or MARCO protein scavenger receptor cysteine-rich (SRCR) domain, 0.3 mg/kg).
To determine the specificity of the effects of recombinant MARCO protein blockade, additional control experiments in which mouse serum protein was used as an irrelevant protein control and the ECD^Δ as the minimal-binding MARCO control were performed.

E0771 tumor cells [3] = experiment: E0771 breast cancer mouse model, DOXIL plus MARCO blockade; assay type: in vivo, mice; conditions: DOXIL 2 mg/kg + SRCR 0.3 mg/kg
Method: For this study, one million E0771 tumor cells were implanted in young female C57BL6 mice (aged 6 weeks old). Tumor growth was measured every 3 days with calipers. Tumor volume was calculated as: Volume=0.5×Length× Width^2. When tumor volume reached around 60-80 mm^3 the treatment was started. The mice were treated with Doxil (DOXIL®, 2 mg/kg) or DOXIL® plus MARCO blockade agent (MARCO recombinant protein, SRCR domain, 0.3 mg/kg). 0.9% sodium chloride was used as a control. All agents were injected intravenously 2 times each week for a total of 5 treatments. FIGS. 9A and 33A-33B show growth curves for the E0771 mice treated by DOXIL® or DOXIL® plus MARCO blockade. n=5-6 mice in each treatment arm. Un-paired t-test was used to compare tumor volumes at day 18. […] FIGS. 33C-33D show survival curves of young and old mice bearing E0771 tumors in the groups treated with Doxil (DOXIL®, 2 mg/kg) or DOXIL® plus MARCO blockade agent (MARCO recombinant protein, SRCR domain, 0.3 mg/kg).
Control vs. MARCO or Doxil vs. DoxM were compared with unpaired/tests. Error bars are means±S.E.M. The present inventors used the same experimental setup with the breast E0771 tumor model and treatment doses as the young animals (DOXIL®, 2 mg/kg, and/or MARCO protein scavenger receptor cysteine-rich (SRCR) domain, 0.3 mg/kg).

nab-paclitaxel = experiment: Pull-down of nab-paclitaxel by recombinant MARCO proteins (Western blot of albumin); assay type: binding; conditions: 0.1 mg/mL SRCR, 0.5 mg/mL ECD or 0.4 mg/mL ECD^Δ with nab-paclitaxel 5 mg/mL, His-tag pulldown
Method: (§1) Consistent with a previous report (Brannstrom, A., et al. 2002. Biochem Biophys Res Commun 290, 1462-1469), the SRCR^R→A and SRCR^Δ mutations of MARCO were not expressed. […] Next, the binding capacity of MARCO to particles and nanomedicine was tested. Centrifugal filters were used to isolate unbound MARCO after incubating the SRCR (0.1 mg/mL) with different concentrations of nanoparticles. The MARCO recombinant proteins (0.1 mg/mL SRCR, 0.5 mg/mL ECD, or 0.4 mg/mL ECD^Δ) were incubated with nab-paclitaxel (5 mg/mL, paclitaxel concentration). After 15 min at room temperature with gentle shaking, the mixture was further incubated with the Dynabeads His-Tag isolation and Pulldown (ThermoFisher, Cat. #10103D). After magnetic separation and three washes with PBS, the beads were boiled in western blot sample buffer for subsequent western blotting. Primary antibodies used for western blots were albumin, CST, Cat. #4929, 1:1000; and His-Tag, CST, Cat. #2365, 1:1000. To test the binding capacity of MARCO, 0.1 mg/mL of SRCR was incubated for 15 min at room temperature with different concentrations of nab-paclitaxel or nanoparticles. The mixture was centrifuged through a 30-kDa cutoff filter (Millipore, UFC903096) at 1000 g for 30 minutes. The unbound SRCR in the lower part of the tube was examined by western blotting. […]

MARCO = target: T1, MARCO; experiment: Binding of nanoparticles with additional MARCO after saturation; conditions: pre-incubation with saturation doses of SRCR or ECD
Method: as §1

Row | Molecule | doxorubicin uptake by liver CD11b+ cells, young versus old mice (liver CD11b+ cells) | nanoparticle uptake by macrophages with recombinant MARCO protein (macrophages) | number of nanoparticles in the liver [1] | treatment outcome of ABRAXANE, older mice (E0771 tumor cells [2]; C57BL6 aged 50 weeks, ABRAXANE 20 mg/kg, SRCR 0.3 mg/kg or anti-MARCO antibody, day 18) | efficacy of combination treatment at increased SRCR concentration (E0771 tumor cells [2]; nab-paclitaxel 20 mg/kg, SRCR 3 mg/kg vs 0.3 mg/kg) | therapeutic effect of ABRAXANE (tumor growth inhibition), young mice (E0771 tumor cells [2]; young (6 weeks) female C57BL6, ABRAXANE 20 mg/kg i.v., antibody 2.5, ECD 1.5, SRCR 0.3 mg/kg, day 18) | treatment outcome of Doxil, older mice (E0771 tumor cells [3]; C57BL6 aged 50 weeks) | relative doxorubicin concentrations in tumors (E0771 tumor cells [3]; Doxil fluorescence intensity per mg of tissue, IVIS) | binding with nab-paclitaxel (nab-paclitaxel) | binding of nanoparticles with additional MARCO after saturation with recombinant MARCO (MARCO)
1 | COc1cccc2c1C(=O)c1c(O)c3c(c(O)c1C2=O)C[C@@](O)(C(=O)CO)C[C@@H]3O[C@H]1C[C@H](N)[C@H](O)[C@H](C)O1 [doxorubicin] | took up more doxorubicin than did the older mice |  |  |  |  |  |  |  |  | 
2 | B1 |  | decreased nanoparticle uptake by macrophages | significantly reduced the number of nanoparticles in the liver | does not enhance the treatment outcome of abraxane in older mice | nor did further increasing the concentration of SRCR enhance the efficacy of combination treatment | enhanced the inhibition of tumor growth in young mice treated with nab-paclitaxel | does not enhance the treatment outcome of Doxil in older mice | increased the relative doxorubicin concentrations in tumors | could strongly bind with nab-paclitaxel | could not bind with additional MARCO

Source: patent US20260102468A1, “COMPOSITIONS AND METHODS FOR MARCO INHIBITION AND IMPROVED DRUG DELIVERY” (BOARD OF REGENTS, THE UNIVERSITY OF TEXAS SYSTEM, priority 2022, published 2026)
